T1: AP2 μ2 (160–435) (human, UniProt Q96CW1 160-435)
T1 sequence: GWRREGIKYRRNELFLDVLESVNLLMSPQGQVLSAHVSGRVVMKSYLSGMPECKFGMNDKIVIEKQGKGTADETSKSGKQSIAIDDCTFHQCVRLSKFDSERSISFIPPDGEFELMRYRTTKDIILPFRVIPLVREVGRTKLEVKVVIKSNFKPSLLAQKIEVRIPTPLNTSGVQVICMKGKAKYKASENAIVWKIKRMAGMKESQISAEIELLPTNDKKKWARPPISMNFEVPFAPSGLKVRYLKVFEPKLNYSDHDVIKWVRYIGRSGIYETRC

T2: TAX1BP3 PDZ (7–124) (human, UniProt O14907 7-124)
T2 sequence: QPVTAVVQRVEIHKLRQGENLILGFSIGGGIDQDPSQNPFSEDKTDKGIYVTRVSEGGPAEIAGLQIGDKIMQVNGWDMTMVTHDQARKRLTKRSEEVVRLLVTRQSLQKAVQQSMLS

T3: SNTA1 PDZ (84–171) (human, UniProt Q13424 84-171)
T3 sequence: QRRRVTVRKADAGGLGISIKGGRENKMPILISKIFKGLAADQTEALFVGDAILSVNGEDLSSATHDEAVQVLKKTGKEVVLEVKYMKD

T4: FRS2 PTB (8–136) (human, UniProt Q8WU20 8-136)
T4 sequence: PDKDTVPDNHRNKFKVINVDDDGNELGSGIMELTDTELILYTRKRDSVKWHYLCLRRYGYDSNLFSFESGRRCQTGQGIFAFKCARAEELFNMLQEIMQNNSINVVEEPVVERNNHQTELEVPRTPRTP

T5: IRS1 PTB (157–267) (human, UniProt P35568 157-267)
T5 sequence: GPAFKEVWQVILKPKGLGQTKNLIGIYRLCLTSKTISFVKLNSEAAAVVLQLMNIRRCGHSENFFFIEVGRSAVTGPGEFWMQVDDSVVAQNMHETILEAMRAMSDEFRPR

T6: DOK1 PTB (151–256) (human, UniProt Q99704 151-256)
T6 sequence: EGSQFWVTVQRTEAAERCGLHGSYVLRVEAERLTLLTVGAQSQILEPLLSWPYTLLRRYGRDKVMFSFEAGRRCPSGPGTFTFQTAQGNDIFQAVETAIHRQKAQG

B1: FITC-labeled ACE2(775–790) peptide, unphosphorylated (peptide)
peptide: {FITC}-RSGENPYASIDISKGE-NH2
B2: FITC-labeled ATG9A(4–14) probe peptide (peptide)
peptide: {FITC}-FDTEYQRLEAS-NH2
B3: TLN1 PTB (442–770) (domain or fragment)
chain: GVSFFLVKEKMKGKNKLVPRLLGITKECVMRVDEKTKEVIQEWNLTNIKRWAASPKSFTLDFGDYQDGYYSVQTTEGEQIAQLIAGYIDIILK
B4: FITC-labeled C-terminal peptide of ACE2(796–805) (peptide)
peptide: {FITC}-QNTDDVQTSF-OH
B5: FITC-labeled ACE2(775–790) peptide, pSer783 (peptide)
peptide: {FITC}-RSGENPYA[pS]IDISKGE-NH2
B6: FITC-labeled ACE2(775–790) peptide, pTyr781 (peptide)
peptide: {FITC}-RSGENP[pY]ASIDISKGE-NH2
B7: FITC-labeled ACE2(787–798) peptide (peptide)
peptide: {FITC}-SKGENNPGFQNT-NH2
B8: NHERF3 PDZ2 (132–224) (domain or fragment)
chain: QPRLCYLVKEGGSYGFSLKTVQGKKGVYMTDITPQGVAMRAGVLADDHLIEVNGENVEDASHEEVVEKVKKSGSRVMFLLVDKETDKRHVEQK
B9: Mouse SNX17 FERM (109–388) (domain or fragment)
chain: TQQVPTEEVSLEVLLSNGQKVLVTVLTSDQTEDVLEAVAAKLDLPDDLIGYFSLFLVREKEDGAFSFVRKLQEFELPYVSVTSLRSQEYKIVLRKSYWDSAYDDDVMENRVGLNLLYAQTVSDIEHGWILVTKEQHRQLKSLQEKVSKKEFLRLAQTLRHYGYLRFDACVADFPEKDCPVVVSAGNSELSLQLRLPGQQLREGSFRVTRMRCWRVTSSVPLPSGGTSSPSRGRGEVRLELAFEYLMSKDRLQWVTITSPQAIMMSICLQSMVDELMVKKS
B10: FITC-labeled SQSTM1(335–344) probe peptide (peptide)
peptide: {FITC}-DDDWTHLSSK-NH2

Where two headings read alike, the source gives them in different places. Square brackets hold non-standard residues; d marks the D form. * marks the point of attachment. FITC = O=C1OC2(c3ccc(O)cc3Oc3cc(O)ccc32)c2ccc(NC(=S)*)cc21; pY = N[C@@H](Cc1ccc(OP(=O)(O)O)cc1)C(=O)O; pS = N[C@@H](COP(=O)(O)O)C(=O)O

What all share (assay): fluorescence polarisation
For assay [1], the target named is T7, […]2 ATG8 (2–115) (human, UniProt P60520 2-115).
T7 sequence (P60520 2-115): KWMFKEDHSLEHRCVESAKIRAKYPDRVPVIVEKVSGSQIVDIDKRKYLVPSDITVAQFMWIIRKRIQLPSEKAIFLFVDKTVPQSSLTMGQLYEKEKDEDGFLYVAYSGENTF
In assay [2] the target is LYN SH2 (106–213) (human, UniProt P07948 106-213).
Assay [3] concerns the target T8, MAP1LC3B ATG8 (2–119) (human, UniProt Q9GZQ8 2-119).
Assay [4] has as its target T1, AP2 μ2 (160–435).
The target of assay [5] is B7.
For assay [6], the target named is T2, TAX1BP3 PDZ (7–124).
The target of assay [7] is T3, SNTA1 PDZ (84–171).
Assay [8] concerns the target SCRIB PDZ1 (718–814) (human, UniProt Q14160 718-814).
Assay [9] addresses MAGI1 PDZ1 (1–106) (human, UniProt Q96QZ7 1-106).
The target of assay [10] is T4, FRS2 PTB (8–136).
The target in assay [11] is T5, IRS1 PTB (157–267).
The target in assay [12] is TLN2 PTB (309–401) (human, UniProt Q9Y4G6 309-401).
Sequence of TLN2 PTB (309–401) (Q9Y4G6 309-401): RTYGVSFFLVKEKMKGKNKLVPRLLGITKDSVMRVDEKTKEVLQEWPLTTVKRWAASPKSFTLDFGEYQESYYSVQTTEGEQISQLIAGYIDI
For assay [13], the target named is T6, DOK1 PTB (151–256).
Assay [14] concerns the target B4.
The target of assay [15] is T7, […]2 ATG8 (2–115). This is another data set of the same source.
The target of assay [16] is MAP1LC3C ATG8 (2–125) (human, UniProt Q9BXW4 2-125).
Sequence of MAP1LC3C ATG8 (2–125) (Q9BXW4 2-125): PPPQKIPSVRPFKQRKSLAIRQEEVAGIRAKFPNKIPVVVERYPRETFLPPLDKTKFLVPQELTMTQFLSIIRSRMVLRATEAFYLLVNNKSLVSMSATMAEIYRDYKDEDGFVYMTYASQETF
In assay [17] the target is T8, MAP1LC3B ATG8 (2–119). The source holds these as a separate data set.

Sequence of MAGI1 PDZ1 (1–106) (Q96QZ7 1-106): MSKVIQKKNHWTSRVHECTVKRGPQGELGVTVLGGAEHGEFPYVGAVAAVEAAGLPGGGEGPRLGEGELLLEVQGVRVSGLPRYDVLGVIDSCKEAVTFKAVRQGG
Sequence of SCRIB PDZ1 (718–814) (Q14160 718-814): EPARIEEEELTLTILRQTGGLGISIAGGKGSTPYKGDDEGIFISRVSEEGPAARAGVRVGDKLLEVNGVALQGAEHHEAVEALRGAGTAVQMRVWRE

As for B1, the equilibrium dissociation constant (Kd) in [1], in [2] and in [3] was greater than 100 µM in each case.

In [4], B2 displayed a Kd of 1.64 µM.

Turning to B3, the Kd in [5] was greater than 100 µM.

As for B4, the Kd in assay [6], in assay [7], in [8] and in [9] was greater than 100 µM in each case.

B5: the Kd in assay [1], in [2] and in assay [3] was greater than 100 µM in each case.

As for B6, the Kd in assay [1] and in assay [3] was greater than 100 µM in each case.

On to B7, for which the Kd in [10], in assay [11], in assay [12] and in assay [13] was greater than 100 µM in each case.

The molecule B8 came in with a Kd in [14] greater than 100 µM.

On to B9, for which, in assay [5], the dissociation constant Kd is roughly 100 µM.

Turning to B10, the Kd in [15] stood at 11 µM; in [16] it was 0.33 µM; in [17], 1.9 µM.

By Kd is commonly meant the equilibrium constant for the complex coming apart. Low readings indicate higher affinity, high ones lower affinity.

These data come from article PMC7928716 (Science Signaling, 2021).
